According to patent US20260209352A1 (Adimab, published 2026):

Experiments:
Human CD3εδ-Fc (human) [1] = target: Human CD3εδ-Fc (human) (UniProt P04234); test: KD of scFv-Fc or IgG on human CD3εδ-Fc; instrument not given
[2] = target: T1, Cynomolgus CD3 on Cyno CD3+ Jurkat cells (cynomolgus, UniProt Q95LI5 22-198); test: cell binding cCD3, fold over background
T1 construct: whole, on cells; CD3 on cells; also called cCD3

[3] = target: Cyno CD3εδ-Fc (cynomolgus) (UniProt Q95LI8); test: KD of scFv-Fc or IgG on cyno CD3εδ-Fc; instrument not given
[4] = target: T2, Human CD3 on Human CD3+ Jurkat cells (human, UniProt P07766 23-207); test: cell binding hCD3, fold over background
T2 construct: whole, on cells; CD3 complex on cells; also called hCD3

Human CD3εδ-Fc (human) [5] = target: Human CD3εδ-Fc (human) (UniProt P04234); test: Biacore SPR, monovalent KD, biotinylated human CD3εδ-Fc
[6] = target: T1, Cynomolgus CD3 on Cyno CD3+ Jurkat cells; test: cell binding, cyno CD3+ Jurkat cells
[7] = target: T2, Human CD3 on Human CD3+ Jurkat cells; test: cell binding, human CD3+ Jurkat cells

Cyno CD3εδ-Fc (cynomolgus), sequence (chain, as listed by the source mutant, chain 1 of 2): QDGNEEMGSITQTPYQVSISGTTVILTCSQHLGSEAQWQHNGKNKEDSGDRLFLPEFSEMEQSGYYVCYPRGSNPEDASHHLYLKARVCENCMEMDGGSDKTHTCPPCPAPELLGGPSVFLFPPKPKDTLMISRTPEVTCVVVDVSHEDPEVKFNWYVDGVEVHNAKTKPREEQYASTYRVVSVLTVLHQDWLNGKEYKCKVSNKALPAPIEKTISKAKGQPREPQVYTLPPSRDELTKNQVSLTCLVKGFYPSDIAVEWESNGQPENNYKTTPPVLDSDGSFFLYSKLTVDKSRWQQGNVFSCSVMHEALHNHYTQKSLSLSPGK
Cyno CD3εδ-Fc (cynomolgus), sequence (Q95LI8 22-105, stated change not applied, chain 2 of 2): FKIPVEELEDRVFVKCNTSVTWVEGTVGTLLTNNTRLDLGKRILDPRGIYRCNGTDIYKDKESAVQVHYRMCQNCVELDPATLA
T2 sequence (P07766 23-207): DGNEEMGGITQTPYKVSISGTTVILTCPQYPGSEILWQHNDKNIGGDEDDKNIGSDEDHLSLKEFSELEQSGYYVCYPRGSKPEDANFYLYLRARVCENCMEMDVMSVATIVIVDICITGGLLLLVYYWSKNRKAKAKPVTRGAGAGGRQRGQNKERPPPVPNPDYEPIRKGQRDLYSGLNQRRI
T1 sequence (Q95LI5 22-198): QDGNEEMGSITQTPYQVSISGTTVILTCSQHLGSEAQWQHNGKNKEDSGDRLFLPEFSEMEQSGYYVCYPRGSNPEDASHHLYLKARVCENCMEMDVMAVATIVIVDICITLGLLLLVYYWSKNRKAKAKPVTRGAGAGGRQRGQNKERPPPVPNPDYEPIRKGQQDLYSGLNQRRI
Human CD3εδ-Fc (human), sequence (chain, as listed by the source mutant, chain 1 of 2): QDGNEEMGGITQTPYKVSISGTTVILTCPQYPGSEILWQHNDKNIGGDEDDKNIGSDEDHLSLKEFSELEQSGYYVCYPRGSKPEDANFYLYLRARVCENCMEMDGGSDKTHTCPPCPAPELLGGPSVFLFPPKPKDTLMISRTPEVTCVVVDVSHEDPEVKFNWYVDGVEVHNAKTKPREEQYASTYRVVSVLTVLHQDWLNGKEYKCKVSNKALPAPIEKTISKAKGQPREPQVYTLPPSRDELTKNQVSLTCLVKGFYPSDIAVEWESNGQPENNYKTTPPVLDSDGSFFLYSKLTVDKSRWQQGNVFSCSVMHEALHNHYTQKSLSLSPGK
Human CD3εδ-Fc (human), sequence (P04234 22-105, stated change not applied, chain 2 of 2): as the sequence (Q95LI8 22-105, stated change not applied, chain 2 of 2) above, with V5I, K15N, V20I, T32S, N33D, N34I, A64T, N74S, L83V counted along it

Kd (Human CD3εδ-Fc (human) [1]) | Cell Binding cCD3 (FOB) [2] | Kd [3] | Cell Binding hCD3 (FOB) [4] | Kd (Human CD3εδ-Fc (human) [5]) | Cell Binding Fold Over Background (FOB) [6] | Cell Binding Fold Over Background (FOB) [7] | Binder
0.091 nM | 159 FOB | 1.1 nM | 59 FOB |  |  |  | ADI-45977 (antibody, V domains shown, also called Ab14) VH: QVQLVQSGAEVKKPGASVKVSCKASGFNIKDYYMHWVRQAPGQRLEWIGWIDLENANTVYDAKLQGRVTITRDTSASTAYMELSSLGSEDTAVYYCARDAYGRYFYDVWGQGTLVTVSS VL: DIVMTQSPDSLAVSLGERATINCKSSQSLLNARTGKNYLAWYQQKPGQPPKLLIYWASTRESGVPDRFSGSGSGTDFTLTISSLQAEDVAVYYCTQSYFRRTFGGGTKVEIK
0.97 nM | 80 FOB |  | 24 FOB | 0.25 nM | 20 FOB | 13 FOB | ADI-46357 (antibody, V domains shown, also called Ab30) VH: QVQLVQSGAEVKKPGASVKVSCKASGFNIKDYYMHWVRQAPGQRLEWIGWIDLENANTVYDAKFQGRVTITRDTSASTAYMELSSLRSEDTAVYYCARDAYGRYFYDVWGQGTLVTVSS VL: DIVMTQSPDSLAVSLGERATINCKSSQSLLNARTGKNYLAWYQQKPGQPPKLLIYWASTRESGVPDRFSGSGSGTDFTLTISSLQAEDVAVYYCAQSYFRRTFGGGTKVEIK
0.89 nM | 102 FOB |  | 43 FOB | 0.22 nM | 28 FOB | 15 FOB | ADI-46359 (antibody, V domains shown, also called Ab42) VH: QVQLVQSGAEVKKPGASVKVSCKASGFNIKDYYMHWVRQAPGQRLEWIGWIDLENANTVYDAKFQGRVTITRDTSASTAYMELSSLRSEDTAVYYCARDAYGQYFYDVWGQGTLVTVSS VL: DIVMTQSPDSLAVSLGERATINCKSSQSLLNARTGKNYLAWYQQKPGQPPKLLIYWASTRESGVPDRFSGSGSGTDFTLTISSLQAEDVAVYYCTQSYFRRTFGGGTKVEIK
0.23 nM | 101 FOB | 2 nM | 24 FOB |  |  |  | ADI-45983 (antibody, V domains shown, also called Ab20) VH: QVQLVQSGAEVKKPGASVKVSCKASGFNIKDYYMHWVRQAPGQRLEWIGWIDLENANTVYDAKFQGRVTITRDTSAGTAYMELSSLRSEDTAVYYCARDAYGRYFYDVWGQGTLVTVSS VL: DIVMTQSPDSLAVSLGERATINCKSSQSLLNARTMKNYLAWYQQKPGQPPKLLIYAASTRESGVPDRFSGSGSGTDFTLTISSLQAEDVAVYYCAQSYFRRTFGGGTKVEIK
0.074 nM | 37 FOB | 1.2 nM | 25 FOB |  |  |  | ADI-45978 (antibody, V domains shown, also called Ab15) VH: QVQLVQSGAEVKKPGASVKVSCKASGFNIKDYYMHWVRQAPGQRLEWLGWIDLENANTVYDAKFQGRVTITRDTSASTAYMELSSLRSEDTAVYYCARDAYGRYFYDVWGQGTLVTVSS VL: DIVMTQSPDSLAVSLGERATINCKSSQSLLNARTGKNYLAWYQQKPGQPPKLLIYWASARESGVPDRFSGSGSGTDFTLTISSLQAEDVAVYYCTQSYFRRTFGGGTKVEIK
0.08 nM | 85 FOB | 1.2 nM | 8 FOB |  |  |  | ADI-45980 (antibody, V domains shown, also called Ab17) VH: QVQLVQSGAEVKKPGASVKVSCKASGFNIKDYYMHWVRQAPGQRLEWIGWIDLENANTVYDAKFQGRVTITRDTSASTAYMELNSLRSEDTAVYYCARDAYGRYFYDVWGQGTLVTVSS VL: DIVMTQSPDSLAVSLGERATINCKSSQSLLNARTGKNYLAWYQQKPGQPPKLLIYWAFTRESGVPDRFSGSGSGTDFTLTISSLQAEDVAVYYCTQSYFRRTFGGGTKVEIK
0.089 nM | 78 FOB | 1.6 nM | 33 FOB |  |  |  | ADI-45981 (antibody, V domains shown, also called Ab18) VH: QVQLVQSGAEVKKPGASVKVSCKASGFNIKDYYMHWVRQAPGQRLEWIGWIDLENANTVYDAKFQGRVTITRDTSASTAYMELSSLRSEDTAVYYCARDAYGRYFYDVWGQGTLVTVSS VL: DIVMTQSPDSLAVSLGERATINCKSSQSLLNARTGKNYLAWYQQKPGQPPKLLIYWASMRESGVPDRFSGSRSGTDFTLTISSLQAEDVAVYYCSQSYFRRTFGGGTKVEIK
0.12 nM | 31 FOB | 1.4 nM | 24 FOB |  |  |  | ADI-45982 (antibody, V domains shown, also called Ab19) VH: QVQLVQSGAEVKKPGASVKVSCKASGFNIKDYYMHWVRQAPGQRLEWIGWIDLENANTVYDAKFQGRVTITRDTSASTAYMELSSLRSEDTAVYYCARDAYGRYFYDVWGQGTLVTVSS VL: DIVMTQSPDSLAVSLGERATINCKSSQSLLNARTGKNYLAWYQQKPGQPPKLLIYWASTRENGVPDRFSGSGSGTDFTLTISSLQAEDVAVYYCTQSYFRRTFGGGTKVEIK
0.19 nM | 72 FOB | 1.7 nM | 54 FOB |  |  |  | ADI-45979 (antibody, V domains shown, also called Ab16) VH: QVQLVQSGAEVKKPGASVKVSCKASGFNIKDYYMHWVRQAPGQRLEWIGWIDLENANTVYDAKFQGRVTITRDTSASTAYMELSSLRSEDTAVYYCARDAYGRYFYDVWGQGTLVTVSS VL: DIVMTQSPDSLAVSLGERATINCKSSQELLNARTGKNYLAWYQQKPGQPPKLLIYWASTRESGVPDRFSGSGSGTDFTLTISSLQAEDVAVYYCKQSYFRRTFGGGTKVEIK
0.08 nM | 23 FOB | 1.2 nM | 21 FOB |  |  |  | ADI-45985 (antibody, V domains shown, also called Ab22) VH: QVQLVQSGAEVKKPGASVKVSCKASGFNIKDYYMHWVRQAPGQRLEWIGWIDLENANTVYDAKFQGRVTITRDTSASTAYMELSSLRSEDTAVYYCARDAYGRYFYDVWGQGTLVTVSS VL: DIVMTQSPDSLAVSLGERATINCKTSQSLLNARTNKNYLAWYQQKPGQPPKLLIYWASTRESGVPDRFSGSGSGTDFTLTISSLQAEDVAVYYCVQSYFRRTFGGGTKVEIK
0.93 nM | 108 FOB |  | 43 FOB | 0.23 nM | 32 FOB | 16 FOB | ADI-46366 (antibody, V domains shown, also called Ab50) VH: QVQLVQSGAEVKKPGASVKVSCKASGFNIKDYYMHWVRQAPGQRLEWIGWIDLENANTVYDAKFQGRVTITRDTSASTAYMELSSLRSEDTAVYYCARDAYGQYFYDVWGQGTLVTVSS VL: DIVMTQSPDSLAVSLGERATINCKSSQSLLNARTGKNYLAWYQQKPGQPPKLLIYWASTRESGVPDRFSGSGSGTDFTLTISSLQAEDVAVYYCVQSYFRRTFGGGTKVEIK
0.095 nM | 92 FOB | 1.3 nM | 88 FOB |  |  |  | ADI-45984 (antibody, V domains shown, also called Ab21) VH: QVQLVQSGAEVKKPGASVKVSCKASGFNIKDYYMHWVRQAPGQRLEWIGWIDLENANTVYDAKFQGRVTITRDTSASTAYMELSSLRSEDTAVYYCARDAYGRYFYDVWGQGTLVTVSS VL: DIVMTQSPDSLAVSLGERATINCKSSQSLLNARTRKNYLAWYQQKPGQPPKLLIYWASTRESGVPDRFSGSGSGTDFTLTISSLQAEDVAVYYCVQSYFRRTFGGGTKVEIK
